Data as given in the DeepSol protein solubility set.

Assay: soluble on expression in E. coli; label from the status in PepcDB or PDB records

Sequence	soluble on expression in E. coli
MPVVKSIYSSLKSFADYFSPSAKTSSQQVVILRMPGNPLELVGLVTRRTLEGLPDGFTQGDRVAVYLPMGYMIGGYTVFVPTEWVHPIQMSVEEAMRSSLIAWMARLEHHHHHH	not soluble
MGSSGGGGSGGGGVTADIGTGLADALTAPLDHKDKGLKSLTLEDSISQNGTLTLSAQGAEKTYGNGDSLNTGKLKNDKVSRFDFIRQIEVDGQLITLESGEFQVYKQSHSALTALQTEQEQDPEHSEKMVAKRRFRIGDIAGEHTSFDKLPKDVMATYRGTAFGSDDAGGKLTYTIDFAAKQGHGKIEHLKSPELNVDLAVAYIKPDEKHHAVISGSVLYNQDEKGSYSLGIFGEKAQEVAGSAEVETANGIHHIGLAAKQ	soluble
SNAGQLCCLREDGERCGRAAGNASFSKRIQKSISQKKVKIELDKSARHLYICDYHKNLIQSVRNRRKRKGS	soluble
MKPLTYTLVVNGPQYGTQSARNAYLFAKALIEKGHILKSVFFYQDGVLNGSSTHVPANDEFNLLQGWQSLAQSHQVQLETCVAAALRRGVVSEQEASQHGLASHNLAAHFTQAGLGSLAQALLEQDRVVQF	soluble
MGSDKIHHHHHHMPGLPRASGSRFSRRLWSNLTWSGLLSMAVMPRHTSIARPPHGMMDPSGTTVWSYDTQGRIIGKTQVVDGASLVTSYVYDGDGRLASLTYPSGEVINYSWSNGQLTGIFRGTSLIASGITCHPFGPVKSWTLDNGQNIVRNFDLDGRITSYSLGSLAYDAASRITGISRGGISILGNSKTYGYDATDRLISFSDGTSAETYAYDASGNRTGQTINGMAYTYSVSYASNRLDAMAGPGSSLHYSYDANGSLVNDGQRSFGYDASGRLSEAVGLASYSFNGLGQRVKKNAGTVIMFVFDEGGQLIGEYGAAGNPIQETVWLDDVPLAVLRYGTTYYIHTDHLNTPPADS	not soluble
MGSDKIHHHHHHMSAPLDIDQLQTFVAIADTGSFTKAADRVFKTQSAVSMQMRRLEERIGKPLFMKDGRGNRLTVEGDRLLNFARRMIRLNNEAIASFDDNRLEGTLRIGTPDDYADRYMPEIIVRFAKTHPNVELYIICEPSVDLAEKMAKGDLDIALVTHNPRARASDVVRTEPLCWVSSINHPLPENAPIPLAVGRRDCQWRQAACAALDATGKEYQILFTSWSSTVVAAAVLAGMAVSVLPESALRPGMKVLTLADGFPSLAPVQIGIMKRPGLSPSLSNAITNHITACLDNITPITVNDDLEGDLKGYPRYPRLRQSHMLPGW	not soluble
MGSDKIHHHHHHMENVPLLQVNKMSKAFSNQLVLKEVNLQVERGDIYALVGGNGAGKSTLMKILTGLYSYDDGEMYVKGTKQQFANPSEAHRKGIYLIPQEPLIFPHMTIEENICIGLTEKKKKLRVQIEQLINSLGWDIDLNELGGSLSIAQQQLVEIVRGLIREAEILILDEPTSTLTTHEIKSLFVLMKSLQEKGIGMIYITHRFPEIFEIANKVAILRDGMIVSQGDVCDYTYDMLMEGLLPKGYKQKEKIEVVQETARTKKILEVIDITSHAFKNISFTVHADEIVGVAGIIGSGRTELAEAIFGLKTIKSGSILLEGKSIDACSLHKRLEKGLVYVPEDRARNGIFSIASVKENIAAASLQQNNRFFINQEKESALVNSFIEQFRIVVQNMNEELVSLSGGNQQKVVLAKYLACNPKIIILDEPTRGIDAKARIEVYETIEKMKREGLAILLISSDVEEIVQLANRVYVMRNGRFVSYMEKEQLSVNEVTRLAYGGVAE	not soluble
MDADVIVVGAGLAGLVAAHELTSRGRRVALVDQENAANLGGQAFWSFGGLFLVDSPEQRRLGVKDSLDLAWNDWQGSAGFDRTEDEDSWAVRWARAYVEWAAGEKRSWLAGHGITFLPTVGWAERGDLRAGGHGNSVPRFHIAWGTGTGVVEPFVRYAKQAARDGLLTFHHRHRVDHLVVEDGTARGVRGTVLAPDDSPRGVASSRDTAGEFELAAQAVIVTSGGIGADHDIVRRHWPERLGTPPAEMVTGVPAYVDGRMLGISAEAGARLVNRDRMWHYTEGVRNWDPIWPGHGIRILPGPSSMWFDALGRRLPEPYLPGYDTLGTLRHLRTAEGLAEHGHSWFVLTRKIIEKEFALSGSEQNPDITAKDRAGFLRERVLGKGAPGPVGAFLRHGADFVTAPDLEQLVEKMNRLTDKPLLDAAALRRQIEARDLQLANPYAKDAQVQGIRNARRYIGDRLGRVATPHRLLDPAAGPLIGVKLHILTRKTLGGIQTDLDSRALGADGTPVEGLYAAGEVAGFGGGGVHGYNALEGTFLGGCLFSGRAAGRAAARQTALEHHHHHH	not soluble
MSLSTKNHFIFPTYVQMYPYSKDRPFLKQVREKLRYYGYKWLYQKQCSQLVDFLNTETQWQSLFTQDYYRTNTILTTFCDKRFSASERLTAITENLRLAEEKMGRSLCQQLLDQQHIVLTQLTEDLRLSLSINHIDPFEGYFSINIRNQNNERVYDSSFTFLSPNKLLIASIQGPSSDNAQELVKQATKALHGMRPMFMLVNGFKMLAEKWQCELVGIPHKAQGKYRLSARSKILFNYDEFWQENQGEYRHNYWQLPLHIERKQLEDIASKKRSMYRKRYEMLDQMALDIQQLEGHHHHHH	soluble
MKSTDNSKPVPFFRGKLKFFQPKEHKISVDLVLFLSKIKPPKRNYRIIDLGAGFGFLSITLAKKYGVKVVAFEYDERMVKLLRKNVKLNGVEHLVEVVEGDIKEIEKHLSRGSFNLVVSNPPFYPINYSPNPEPYHFEVYATLKDFVRASSYLLKDGGELYLLSPCFRLYELTEYLSNFNLPLRKLSLIYPTPLKRARLAITVSVKNVKGQLECDKPLIINKENGEYTEEVKQLLENFL	soluble
MVEDPYIWMENLQDNRVREIIERENKKFREFIGELSDKLFPEVWEYFSIPTVTMAKITKRGIIVSYNEKDRSIIRWLDGDVIVDSKEIEREVGDEVLLQGFTADDEGEKLAYSFSIGGADEGITRIIDLKSGEVIEEIKPSIWNILFLKDGYYFARFYRKEKTPDGVDPPAERVFWKDKEGEKMVFGEGLTSGYFMTLRKSSDDKFAMLTLNYGWNQGEIYVGPIDKPQEWRKVYSATVPVEPVDIVNGKLYILTREGRGMGKVIAVKDGEIEEVIPEGEFPLEWAVIVDDKIVAGRLVHASHRLEVYTLKGEKIEEVTFDIPGALHPLDKNNKEVLLRYISFTIPYRLYEFKDKLRIIEERKVEGKFKVEEDFVVSKDGTRIHYFIIKGEKDEKKAWVFGYGGFNIALTPRFFPQVIPFLKRGGTFVMANLRGGSEYGEEWHRAGMRENKQNVFDDFIAVLEKLKKEGYKVAAWGRSNGGLLVSATLTQRPDIMDAALIGYPVIDMLRFHKLYIGSVWIPEYGNPDDPKDREFLLKYSPYHNVDPNKKYPLTLIYTGLHDDRVHPAHALKFFMKLKEVGAPVYLRVETKSGHMGASPETRARELTDLLAFVLKSLS	soluble
SEELDRQKIGGFWREVGVASDQSLVLTAPKRVEGLFLTLSGSNLTVKVAYNSSGSCEIEKIVGSEIDSTGKFAFPGKCSCPVMAGGTRLCTQLGLIVPHAVPCTVPHAVPCTVLCAVPCTVPHAVP	soluble
MMGFEKVEHLLPDTVLDIVDVIGLAATEQLVKAIGGARFKFGKGKVDTERLAILVEAIGEVKTHELLQVYGGEELYVPRCGKALIQLRNHRFYQEFVKLRDIDKKSGLMAMTKLCPKYGISSRTGYTIINEMSRPAAQQAALF	not soluble
MGSDKIHHHHHHMNKVTINPQIQLTYQIEGKGDPIILLHGLDGNLAGFEDLQHQLASSYKVLTYDLRGHGKSSKSESYDLNDHVEDLKILMEKLNIHEAHILGHDLGGVVAKLFTDKYAYRVKSLTTIASKKDDLIHSFTQLLIQYQDDIAGFNKSEAYILLFSKLFRNQEKTMKWYQKQRIYSIKSEDDSAVAIRSLILHKDEPMYLKKRTCVPTLLINGEHDPLIKDKNHFKLEAHFLNVTKKIFEHSGHAPHIEEPEAFMNYYLNFLKSVS	not soluble
MRRGGSMGPPSGDPYQSRPSPGGYYYNRSTPGGQPAPSPSHSQQSASSHHPRGVPMSQPIARRSDYRTGSEQMTPRSDHRGPSMGYGNGGSVDQRVDDVTPSYYVEHLATFAVGRQFGLTFPADGIRKLKQMEKNSAIWAQPLILRFRHNAVTVEDDNGELVEQFPLELIEQPTAHVSNDSRETYNNVLLFVVREDRKRMSTPTEMHIFQCIRVSATDVAEDLKNYVQGQFRRVRNGRRTAAPTHLQAQQQQMPFYPPDDASISSETSEMFERDVNTLNRCFDDIERFVARIQSAALAQREIEQQNHRYRTANRRDKKNQQPPDPNGILFMRAQLPLESEFVDILKKFKLSFNLLAKLKNHIHEPNAPELLHFLFTPLAVILEACHWGLGRNVAPTVASPLLSLEARELMQNCLTSHESDIWMSLGEAWRTPPEDWTKPLPPPYRPIFNDGFAPYGVADRAMATPNQIHRGHSAPPEHFRQPPPRERNMVDTLEFDRLTLERERLEFEKAKIMERESRLRHEEKQIEDEKRRMHAEKDLITKETTQPVPPPAAVVTHQPITKRYDPPISISPPPQRNNYSHVKVTVDSDTSPRQQAFIDDIVAKGGKLAVVTYDRGGQNTKELTVHKGEYLEVIFDERNWWECKNMHQRVGYVPHTILSMVPFEQQQYAQQYNVMSSQHNVIQINDGVGKMEVFISKTCNFILITTCNLFCSTTKTAVPDIYRAFVMNDETRQMSGTPCENSRSFLSSNTLSSSPENAPEIPLLENLKFNHNKLYLFHILSPNHHNNSSSTGGYNNGHHQGPGMLPEDAPSYVKERQAQNVYRPPPPPLVSDAGVQVEIRREHVAPPPPPVVIPPPPPPVRTPTMEELLRMQQQQQQKQRKPPVEEPVYQPQPAQRAGLEIWRRNQNPQLIQEVTETVGQHSGDILRPAMQRATRVAINEKSSPEDVTRWLQEKGFSPRVIDLLDGQDGANLFSLSKLHLQQACGRDEGGYLYSQLLVQKKRSGFRTHTGDELKAILNHRRTHVELSNEAAADEPVFTINPIL	not soluble
MGSDKIHHHHHHMWDYDRLFEIIEELVMHHSPSGAEAEINQLLMQRFAALGVEVWCDRADNIIAKIPGKNPDRAMSNDKPLLYERLRQRAYAITAHKDEIGAIVKSLGDEGRVEVRKLGGSFPWVYGEGVVDLLGDRETISGILSFGSRHVSHESPQKVQQEDTTVKWENAWIETKRTTDELEAAGVRPGTRMVIGKHRKHPIRLKDHIASYTLDNKASVAILLALAENLKQPVVDVYLVASAKEEVGAIGALFFTQNQPLDALIALEVCPLSEEYPIKDGESPILLSQDAYGIYDEGLNGQVRQSAKQLDIPVQLTILSQFGSDASIAMKFGHVARAACLAFPTQNTHGYEIAHLGAIANCIDLLKAFCETEF	not soluble
MGSDKIHHHHHHMKTSVKFETIFPLTTAPLIQCITNEITCESMANALLYIDAKPIMADDPREFPQMFQQTSALVLNLGHLSQEREQSLLAASDYARQVNKLTVVDLVGYGASDIRNEVGEKLVHNQPTVVKGNLSEMRTFCQLVSHGRGVDGSPLDQSEEAIEELIQALRQQTQKFPQTVFLATGIQDVLVSQEQVIVLQNGVPELDCFTGTGDLVGALVAALLGEGNAPMTAAVAAVSYFNLCGEKAKTKSQGLADFRQNTLNQLSLLMKEKDWFEAVKGRVL	not soluble
MLLTCRFTAATSRLSACTRSFSIDFSHEKPAPHQLEHVTTRLTETVPLMFRRRMDYTFYRKDVVCDDQIFSVEKRGIEQLMSHFGMIGTLGQVFLPHVEMEMLSVAPVIDEGTVRCRWRVKYVSFTRIIMNPRLLRFDYRMQNLSWFDGYSVLTVDGNGEVYKVTLQKMQQDEQKSLLTSTTEKLKEKLAPSAANN	not soluble
